The target of series [1] is FMN-containing OdAu1aLOV (isolated LOV domain of Ochromonas danica Aureochrome1a) (Ochromonas danica). The series can be described thus: SEC; concentration-dependent analytical gel filtration of lit-state OdAu1aLOV, 200 to 10 μM (Figure S6); column illuminated with 450 nm LEDs. (SEC sorts molecules by how far they enter the pores of the column.)
Series [2] has the same target. The experiment in a line: SEC; analytical gel filtration of OdAu1aLOV in the lit state (column illuminated with 450 nm LEDs); HEPES 20 mM pH 7.4, NaCl 100 mM, MgCl2 10 mM, TCEP 0.3 mM; 100 μM protein.
The target in series [3] is T1, OdAu1abZIPLOV (Aureochrome1a bZIP-LOV), 5dFMN cofactor (Ochromonas danica, UniProt C5NSW6). The series can be described thus: EMSA; dark state; single shifted band, no supershift; DNA binding buffer: 20 mM HEPES pH 7.4, 100 mM NaCl, 10 mM MgCl2, 1 mM TCEP; EMSA: 20 nM DNA, 10% glycerol, BSA, poly-dI-dC, at 4 C; SEC samples incubated 30 mi. On the technique in general: In EMSA bound probe runs differently from free probe, usually more slowly.

The target of series [4] is T2, OdAu1abZIPLOV (Aureochrome1a bZIP-LOV), FMN cofactor (Ochromonas danica, UniProt C5NSW6). The experiment in a line: EMSA; lit state (450 nm); supershifted band, putative 2:1 complex; DNA binding buffer: 20 mM HEPES pH 7.4, 100 mM NaCl, 10 mM MgCl2, 1 mM TCEP; EMSA: 20 nM DNA, 10% glycerol, BSA, poly-dI-dC, at 4 C; SEC samples incubated 30 mi.
In series [5] the target is T3, FMN-containing OdAu1a_(bZIPLOV) (bZIP and LOV domains of Ochromonas danica Aureochrome1a) (Ochromonas danica). The series can be described thus: SEC; analytical gel filtration of OdAu1a_(bZIPLOV) in the dark state (Figures S7-S9).
Series [6] concerns the target T3, FMN-containing OdAu1a_(bZIPLOV) (bZIP …). The experiment in a line: SEC; analytical gel filtration of OdAu1a_(bZIPLOV) in the lit state (450 nm LEDs; Figures S7-S9).
In series [7] the target is T4, 5dFMN-containing OdAu1a_(bZIPLOV) (bZIP and LOV domains of Ochromonas danica Aureochrome1a refolded with 5-deazaflavin mononucleotide) (Ochromonas danica). The series can be described thus: SEC; analytical gel filtration of OdAu1a_(bZIPLOV) in the dark state (Figures S7-S9).
Series [8] has as its target T4, 5dFMN-containing OdAu1a_(bZIPLOV) (bZIP …). The series can be described thus: SEC; analytical gel filtration of OdAu1a_(bZIPLOV) in the lit state (450 nm LEDs; Figures S7-S9).
Series [9] concerns the target T2, OdAu1abZIPLOV (Aureochrome1a bZIP-LOV), …. The experiment in a line: size-exclusion chromatography; dark state, 50 uM protein; DNA binding buffer: 20 mM HEPES pH 7.4, 100 mM NaCl, 10 mM MgCl2, 1 mM TCEP; EMSA: 20 nM DNA, 10% glycerol, BSA, poly-dI-dC, at 4 C; SEC samples incubated 30 mi.
Series [10] has as its target T1, OdAu1abZIPLOV (Aureochrome1a bZIP-LOV), …. Described as above.

“FMN-containing OdAu1aLOV (isolated LOV domain of Ochromonas danica Aureochrome1a) (domain or fragment)”: the stoichiometry N in series [1] and in [2] was 2 in each case.

B1: OdAu1a recognition DNA, TAMRA (dsDNA)
DNA 1: TGTAGCGTCTGACGTGGTTCCCAC
DNA 2: GTGGGAACCACGTCAGACGCTACA
Regarding B1, the binding result in series [3] and in [4] was “binds” throughout.

B2: FMN-containing OdAu1a_(bZIPLOV) (bZIP and LOV domains of Ochromonas danica Aureochrome1a) (domain or fragment)
chain: EEQKIERRERNREHAKRSRVRKKFLLESLQHSVRALEEENEKLRNAIRENLQGEAEQLLTRCSCGGPSVIASDPNTATRTLDDPDYSLVKALQTAQQNFVISDPSIPDNPIVYASQGFLTLTGYALSEVLGRNCRFLQGPETDPKAVEKVRKGLERGEDTTVVLLNYRKDGSTFWNQLFIAALRDGEGNVVNYLGVQCKVSEDYAKAFLKNEENEK
modifications: not checked
With B2, the stoichiometry N in [5] and in series [6] was 2 in each case.

B3: 5dFMN-containing OdAu1a_(bZIPLOV) (bZIP and LOV domains of Ochromonas danica Aureochrome1a refolded with 5-deazaflavin mononucleotide) (domain or fragment)
chain: B2 chain
modifications: not checked
For B3, the stoichiometry N in series [7] and in [8] was 2 throughout.

B4: OdAu1a recognition DNA, 24 bp, unlabelled (dsDNA)
DNA 1: TGTAGCGTCTGACGTGGTTCCCAC
DNA 2: GTGGGAACCACGTCAGACGCTACA
Regarding B4, the binding result in [9] and in series [10] was “binds” each time.

Usually stoichiometry N stands for a count of units in the complex or per binding partner.

Source of the values: article PMC7007005.
